System: Fer (mouse)
Assay: phosphorylation enrichment, bacterial display (enrichment ratio); higher = better substrate or ligand; peptides without Tyr show the background
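Note: 11-residue human phosphosite peptides and single-mutation variants displayed on the E. coli surface, counted by deep sequencing, each peptide's frequency after selection divided by its frequency in the unselected input library; frequency after pTyr selection over input frequency; kinase dosed for 20-30% of maximal phosphorylation in three min.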

Row | Sequence | phosphorylation enrichment
1 | THPFLYLTLEI [MLH1_Y293_S295T] | 0.778
2 | AEKPKYQISNI [TJP1_Y1602_N1605S] | 0.377
3 | KRLFAYKMLMA [TMC2_Y209_Q205R_YF] | 0.59
4 | GAVDTYCRHNF [HLA-DRB1_Y107_A102G_YF] | 0.591
5 | VHFARYLAMNK [HARS1_Y138_P134H] | 0.44
6 | DPLLTYQFPPK [LMNA_Y481_R482Q] | 0.498
7 | WKESWYSMRKM [FGB_Y475_G472E] | 0.535
8 | WCSNDYLGMSQ [ALAS2_Y199_R204Q] | 0.642
9 | IVGLLYRLLTE [SETX_Y1978] | 0.561
10 | PSDSGYSYETI [MAP1B_Y1921] | 0.642
11 | RGFDTYFGFLL [ARSB_Y165_YF] | 4.06
12 | YRKNIYNVKST [SYNE2_Y575] | 0.425
13 | TTKVSYRASQP [MKI67_Y1737] | 0.432
14 | LARDMCDKEFF [MET_Y1230_Y1230C_YF] | 0.738
15 | CTIIHYNFMCN [TP53_Y234_T231I_YF] | 0.686
16 | PSQRCYVYYYS [PTEN_Y174_R173C] | 0.807
17 | GQRDLYSGLNQ [CD3E_Y199] | 4.76

Row | Sequence | phosphorylation enrichment
18 | PEPHIYAVADV [MYO9A_Y216_L211P] | 3.02
19 | FEAMEYLESKQ [BTK_Y511_C506Y_YF] | 0.543
20 | YSNVLYRPRGP [TMIGD2_Y197_A202P] | 1.83
21 | YPKARYRWLVL [APTX_Y214_H215R] | 0.456
22 | YKGKKYKPLDL [RPL35_Y78] | 0.537
23 | TGDVQYRSSVR [FREM2_Y2158] | 0.385
24 | LNTFHHAGVSA [POLR2A_Y1109_Y1109H] | 0.766
25 | AQMAMYFWEMS [TRPM4_Y577_G582S] | 0.9
26 | VTVLDYDKIGK [SYT1_Y365] | 0.404
27 | TQNGVYSAANF [DDX5_Y535_YF] | 4.42
28 | CYCSWYRGWAP [TIMP3_Y195_G190C] | 3.41
29 | WQQQSYLDFGI [CTNNB1_Y30_S33F] | 0.39
30 | TYGNLYGSRKQ [YIPF7_Y59_A54T] | 1.38
31 | GPGSGYTNIMR [PKLR_Y564_R559G] | 0.362
32 | HNGVSYFINLC [IGF2R_Y2024_YF] | 0.587
33 | RKIMGYSIRTI [IDS_Y490_I485R] | 0.619

Biological target: Fes (UniProt P07332)
Sequence (P07332 whole entry, looked up): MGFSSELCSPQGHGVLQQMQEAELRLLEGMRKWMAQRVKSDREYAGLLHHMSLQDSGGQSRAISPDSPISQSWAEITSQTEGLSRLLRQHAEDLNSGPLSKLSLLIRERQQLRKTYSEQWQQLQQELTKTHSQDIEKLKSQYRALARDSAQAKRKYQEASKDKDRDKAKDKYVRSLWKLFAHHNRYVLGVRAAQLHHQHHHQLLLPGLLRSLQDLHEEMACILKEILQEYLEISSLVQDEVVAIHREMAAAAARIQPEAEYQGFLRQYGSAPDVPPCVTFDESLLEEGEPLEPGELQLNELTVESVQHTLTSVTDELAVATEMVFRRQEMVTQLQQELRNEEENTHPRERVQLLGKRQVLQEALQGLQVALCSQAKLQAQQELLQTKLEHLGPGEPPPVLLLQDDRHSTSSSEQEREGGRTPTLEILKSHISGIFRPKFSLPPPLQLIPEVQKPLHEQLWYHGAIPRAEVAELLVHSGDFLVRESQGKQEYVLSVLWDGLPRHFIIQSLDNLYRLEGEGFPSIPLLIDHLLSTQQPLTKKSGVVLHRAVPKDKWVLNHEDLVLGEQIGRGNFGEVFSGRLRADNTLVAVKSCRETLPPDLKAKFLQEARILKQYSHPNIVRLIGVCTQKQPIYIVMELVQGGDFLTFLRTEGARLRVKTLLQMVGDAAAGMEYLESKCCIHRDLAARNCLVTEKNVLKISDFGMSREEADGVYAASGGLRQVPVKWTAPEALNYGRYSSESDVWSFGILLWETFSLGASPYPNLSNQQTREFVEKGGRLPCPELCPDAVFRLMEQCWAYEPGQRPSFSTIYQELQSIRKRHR
Assay: as above

Row | Sequence | phosphorylation enrichment
34 | THPFLYLTLEI [MLH1_Y293_S295T] | 2
35 | AEKPKYQISNI [TJP1_Y1602_N1605S] | 0.544
36 | KRLFAYKMLMA [TMC2_Y209_Q205R_YF] | 0.867
37 | GAVDTYCRHNF [HLA-DRB1_Y107_A102G_YF] | 0.742
38 | VHFARYLAMNK [HARS1_Y138_P134H] | 0.902
39 | DPLLTYQFPPK [LMNA_Y481_R482Q] | 0.773
40 | WKESWYSMRKM [FGB_Y475_G472E] | 1.34
41 | WCSNDYLGMSQ [ALAS2_Y199_R204Q] | 1.02
42 | IVGLLYRLLTE [SETX_Y1978] | 1.35
43 | PSDSGYSYETI [MAP1B_Y1921] | 1.38
44 | RGFDTYFGFLL [ARSB_Y165_YF] | 1.53
45 | YRKNIYNVKST [SYNE2_Y575] | 0.47
46 | TTKVSYRASQP [MKI67_Y1737] | 0.489
47 | LARDMCDKEFF [MET_Y1230_Y1230C_YF] | 2.12
48 | CTIIHYNFMCN [TP53_Y234_T231I_YF] | 1.54
49 | PSQRCYVYYYS [PTEN_Y174_R173C] | 2.28
50 | GQRDLYSGLNQ [CD3E_Y199] | 0.749

Row | Sequence | phosphorylation enrichment
51 | PEPHIYAVADV [MYO9A_Y216_L211P] | 1.55
52 | FEAMEYLESKQ [BTK_Y511_C506Y_YF] | 1.36
53 | YSNVLYRPRGP [TMIGD2_Y197_A202P] | 0.656
54 | YPKARYRWLVL [APTX_Y214_H215R] | 0.787
55 | YKGKKYKPLDL [RPL35_Y78] | 0.541
56 | TGDVQYRSSVR [FREM2_Y2158] | 0.534
57 | LNTFHHAGVSA [POLR2A_Y1109_Y1109H] | 2.04
58 | AQMAMYFWEMS [TRPM4_Y577_G582S] | 1.73
59 | VTVLDYDKIGK [SYT1_Y365] | 0.828
60 | TQNGVYSAANF [DDX5_Y535_YF] | 0.541
61 | CYCSWYRGWAP [TIMP3_Y195_G190C] | 1.08
62 | WQQQSYLDFGI [CTNNB1_Y30_S33F] | 1.04
63 | TYGNLYGSRKQ [YIPF7_Y59_A54T] | 0.6
64 | GPGSGYTNIMR [PKLR_Y564_R559G] | 0.496
65 | HNGVSYFINLC [IGF2R_Y2024_YF] | 2.08
66 | RKIMGYSIRTI [IDS_Y490_I485R] | 0.796

Biological target: Jak2 (UniProt O60674)
Sequence (O60674 whole entry, looked up): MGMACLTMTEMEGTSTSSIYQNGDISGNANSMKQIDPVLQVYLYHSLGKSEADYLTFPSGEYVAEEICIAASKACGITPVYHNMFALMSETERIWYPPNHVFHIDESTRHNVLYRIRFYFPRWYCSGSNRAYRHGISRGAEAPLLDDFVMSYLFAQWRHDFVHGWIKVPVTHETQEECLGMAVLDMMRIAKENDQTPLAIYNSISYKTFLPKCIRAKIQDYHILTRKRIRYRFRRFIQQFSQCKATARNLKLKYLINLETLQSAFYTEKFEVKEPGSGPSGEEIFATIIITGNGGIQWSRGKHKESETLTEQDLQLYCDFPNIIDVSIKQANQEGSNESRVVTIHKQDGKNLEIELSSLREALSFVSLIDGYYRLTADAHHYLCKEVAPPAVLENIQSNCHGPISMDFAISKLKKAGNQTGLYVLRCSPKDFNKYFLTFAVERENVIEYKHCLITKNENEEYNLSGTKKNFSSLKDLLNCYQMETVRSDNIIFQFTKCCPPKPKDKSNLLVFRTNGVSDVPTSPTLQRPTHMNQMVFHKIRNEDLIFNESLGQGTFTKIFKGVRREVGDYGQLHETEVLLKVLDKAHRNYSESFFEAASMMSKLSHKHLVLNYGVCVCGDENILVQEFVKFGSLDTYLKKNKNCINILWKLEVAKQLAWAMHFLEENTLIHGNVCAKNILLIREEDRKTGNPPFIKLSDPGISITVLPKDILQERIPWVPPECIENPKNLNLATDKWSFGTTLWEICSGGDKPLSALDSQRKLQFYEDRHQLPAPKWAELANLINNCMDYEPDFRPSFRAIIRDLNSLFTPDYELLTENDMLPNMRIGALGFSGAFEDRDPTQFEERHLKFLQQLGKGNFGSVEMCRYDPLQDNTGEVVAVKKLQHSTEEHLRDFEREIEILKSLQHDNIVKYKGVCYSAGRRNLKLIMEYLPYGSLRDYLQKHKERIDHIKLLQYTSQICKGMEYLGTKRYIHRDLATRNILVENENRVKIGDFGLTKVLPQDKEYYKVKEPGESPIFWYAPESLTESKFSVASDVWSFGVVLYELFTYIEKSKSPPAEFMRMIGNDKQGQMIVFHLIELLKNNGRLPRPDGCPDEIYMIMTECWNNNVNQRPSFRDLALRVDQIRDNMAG
Assay: as above

Row | Sequence | phosphorylation enrichment
67 | THPFLYLTLEI [MLH1_Y293_S295T] | 1.97
68 | AEKPKYQISNI [TJP1_Y1602_N1605S] | 0.401
69 | KRLFAYKMLMA [TMC2_Y209_Q205R_YF] | 0.669
70 | GAVDTYCRHNF [HLA-DRB1_Y107_A102G_YF] | 0.648
71 | VHFARYLAMNK [HARS1_Y138_P134H] | 0.661
72 | DPLLTYQFPPK [LMNA_Y481_R482Q] | 0.566
73 | WKESWYSMRKM [FGB_Y475_G472E] | 1.33
74 | WCSNDYLGMSQ [ALAS2_Y199_R204Q] | 4.19
75 | IVGLLYRLLTE [SETX_Y1978] | 1.13
76 | PSDSGYSYETI [MAP1B_Y1921] | 0.848
77 | RGFDTYFGFLL [ARSB_Y165_YF] | 4.64
78 | YRKNIYNVKST [SYNE2_Y575] | 0.37
79 | TTKVSYRASQP [MKI67_Y1737] | 0.475
80 | LARDMCDKEFF [MET_Y1230_Y1230C_YF] | 1.34
81 | CTIIHYNFMCN [TP53_Y234_T231I_YF] | 1.5
82 | PSQRCYVYYYS [PTEN_Y174_R173C] | 2.59
83 | GQRDLYSGLNQ [CD3E_Y199] | 0.594

Row | Sequence | phosphorylation enrichment
84 | PEPHIYAVADV [MYO9A_Y216_L211P] | 0.695
85 | FEAMEYLESKQ [BTK_Y511_C506Y_YF] | 1.17
86 | YSNVLYRPRGP [TMIGD2_Y197_A202P] | 0.501
87 | YPKARYRWLVL [APTX_Y214_H215R] | 0.6
88 | YKGKKYKPLDL [RPL35_Y78] | 0.51
89 | TGDVQYRSSVR [FREM2_Y2158] | 0.408
90 | LNTFHHAGVSA [POLR2A_Y1109_Y1109H] | 1.19
91 | AQMAMYFWEMS [TRPM4_Y577_G582S] | 1.61
92 | VTVLDYDKIGK [SYT1_Y365] | 0.501
93 | TQNGVYSAANF [DDX5_Y535_YF] | 0.444
94 | CYCSWYRGWAP [TIMP3_Y195_G190C] | 1.04
95 | WQQQSYLDFGI [CTNNB1_Y30_S33F] | 0.974
96 | TYGNLYGSRKQ [YIPF7_Y59_A54T] | 0.73
97 | GPGSGYTNIMR [PKLR_Y564_R559G] | 0.533
98 | HNGVSYFINLC [IGF2R_Y2024_YF] | 2.2
99 | RKIMGYSIRTI [IDS_Y490_I485R] | 0.62

Biological target: MERTK (UniProt Q12866)
Sequence (Q12866 whole entry, looked up): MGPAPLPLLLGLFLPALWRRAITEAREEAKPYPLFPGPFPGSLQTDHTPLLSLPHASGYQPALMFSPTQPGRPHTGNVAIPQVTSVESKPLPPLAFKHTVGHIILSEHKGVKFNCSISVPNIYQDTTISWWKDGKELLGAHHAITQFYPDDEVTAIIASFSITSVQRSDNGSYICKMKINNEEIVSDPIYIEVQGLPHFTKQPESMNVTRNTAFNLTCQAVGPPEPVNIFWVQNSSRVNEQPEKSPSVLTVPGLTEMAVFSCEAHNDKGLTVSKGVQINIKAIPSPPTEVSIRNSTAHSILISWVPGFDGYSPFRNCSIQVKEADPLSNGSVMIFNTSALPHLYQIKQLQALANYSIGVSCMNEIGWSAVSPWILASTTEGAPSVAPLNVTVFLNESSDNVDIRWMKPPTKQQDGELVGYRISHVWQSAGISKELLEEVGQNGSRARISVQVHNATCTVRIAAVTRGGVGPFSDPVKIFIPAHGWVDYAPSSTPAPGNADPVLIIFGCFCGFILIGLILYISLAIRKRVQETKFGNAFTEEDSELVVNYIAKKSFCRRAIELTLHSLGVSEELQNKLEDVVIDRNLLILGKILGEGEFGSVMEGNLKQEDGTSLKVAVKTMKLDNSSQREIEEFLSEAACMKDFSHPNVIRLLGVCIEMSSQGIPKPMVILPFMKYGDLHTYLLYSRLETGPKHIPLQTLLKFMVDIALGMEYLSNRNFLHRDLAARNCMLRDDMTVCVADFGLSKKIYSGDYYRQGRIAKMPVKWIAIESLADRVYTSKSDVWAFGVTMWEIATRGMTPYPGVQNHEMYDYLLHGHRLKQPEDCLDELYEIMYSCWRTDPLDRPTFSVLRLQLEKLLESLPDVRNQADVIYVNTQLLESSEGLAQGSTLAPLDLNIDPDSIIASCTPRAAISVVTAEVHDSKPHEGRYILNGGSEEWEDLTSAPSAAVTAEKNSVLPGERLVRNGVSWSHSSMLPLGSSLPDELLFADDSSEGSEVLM
Assay: as above

Row | Sequence | phosphorylation enrichment
100 | THPFLYLTLEI [MLH1_Y293_S295T] | 0.524
101 | AEKPKYQISNI [TJP1_Y1602_N1605S] | 0.333
102 | KRLFAYKMLMA [TMC2_Y209_Q205R_YF] | 0.375
103 | GAVDTYCRHNF [HLA-DRB1_Y107_A102G_YF] | 0.474
104 | VHFARYLAMNK [HARS1_Y138_P134H] | 0.509
105 | DPLLTYQFPPK [LMNA_Y481_R482Q] | 0.796
106 | WKESWYSMRKM [FGB_Y475_G472E] | 0.544
107 | WCSNDYLGMSQ [ALAS2_Y199_R204Q] | 0.478
108 | IVGLLYRLLTE [SETX_Y1978] | 0.71
109 | PSDSGYSYETI [MAP1B_Y1921] | 0.583
110 | RGFDTYFGFLL [ARSB_Y165_YF] | 5.24
111 | YRKNIYNVKST [SYNE2_Y575] | 0.354
112 | TTKVSYRASQP [MKI67_Y1737] | 0.352
113 | LARDMCDKEFF [MET_Y1230_Y1230C_YF] | 0.697
114 | CTIIHYNFMCN [TP53_Y234_T231I_YF] | 0.434
115 | PSQRCYVYYYS [PTEN_Y174_R173C] | 2.02
116 | GQRDLYSGLNQ [CD3E_Y199] | 5.2

Row | Sequence | phosphorylation enrichment
117 | PEPHIYAVADV [MYO9A_Y216_L211P] | 2.97
118 | FEAMEYLESKQ [BTK_Y511_C506Y_YF] | 0.474
119 | YSNVLYRPRGP [TMIGD2_Y197_A202P] | 0.856
120 | YPKARYRWLVL [APTX_Y214_H215R] | 0.478
121 | YKGKKYKPLDL [RPL35_Y78] | 0.581
122 | TGDVQYRSSVR [FREM2_Y2158] | 0.398
123 | LNTFHHAGVSA [POLR2A_Y1109_Y1109H] | 0.883
124 | AQMAMYFWEMS [TRPM4_Y577_G582S] | 2.5
125 | VTVLDYDKIGK [SYT1_Y365] | 0.48
126 | TQNGVYSAANF [DDX5_Y535_YF] | 6.66
127 | CYCSWYRGWAP [TIMP3_Y195_G190C] | 0.733
128 | WQQQSYLDFGI [CTNNB1_Y30_S33F] | 0.418
129 | TYGNLYGSRKQ [YIPF7_Y59_A54T] | 0.89
130 | GPGSGYTNIMR [PKLR_Y564_R559G] | 0.393
131 | HNGVSYFINLC [IGF2R_Y2024_YF] | 0.613
132 | RKIMGYSIRTI [IDS_Y490_I485R] | 0.535
